Assay results published in the supplement of paper PMC9732359.
± gives the uncertainty stated by the source.

Assay: protein stability index of a GFP-peptide fusion (yeast GPS) (PSI 1-4); higher = more stable; sorted into four equal gates, so the index is relative within each strain
How it was run: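 Tiled 17-residue yeast protein peptides were fused downstream of GFP in a plasmid that also expresses Cherry, and the pooled library was carried in yeast. Mid-log cultures in leucine-free medium were sorted into four equal gates by GFP/Cherry fluorescence ratio, and plasmids from each gate were PCR-amplified and Illumina-sequenced, with reads assigned to strains by barcodes. The protein stability index for each peptide was each gate's read frequency times its gate number, summed.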

Sequence | protein stability index (doa10∆) | protein stability index (pdr5∆) | protein stability index (san1∆) | protein stability index (ubr1∆)
ESTETGYVIKVFNNGIV [DIS3] | 2.34 ± 0.19 | 3.08 ± 0.21 | 2.13 ± 0.14 | 1.21 ± 0.24
HKVQTKLTRELEKKFQD [RPS7A] | 2.43 ± 0.066 | 2.01 ± 0.06 | 2.37 ± 0.091 | 2.54 ± 0.048
SKQDASPKPYAVKYGLN [RPL8A] | 3.3 ± 0.12 | 3.2 ± 0.096 | 3.23 ± 0.095 | 3.14 ± 0.095
SVLLHHKTMSIVGVLQD [RPT2] | 1.34 ± 0.074 | 1.51 ± 0.053 | 1.37 ± 0.096 | 1.57 ± 0.042
DTAGEESQQQDESLKDE [SWI3] | 3.36 ± 0.2 | – | 3.13 ± 0.16 | 3.61 ± 0.29
VIQDEVLAHRIGLVPLK [RPC40] | 2.94 ± 0.27 | – | – | –
KTARGKAALERLKVFEG [RPL16A] | 2.28 ± 0.15 | 2.37 ± 0.089 | 2.95 ± 0.1 | 2.1 ± 0.12
KTKFQYKFLDQNSDAST [YIL149C/MLP2] | 3.08 ± 0.1 | 3.01 ± 0.096 | 2.94 ± 0.078 | 3.06 ± 0.08
VSTLIAGFDPRDDEPKL [PRE6] | – | – | 3.12 ± 0.077 | –
SMSEEFKYVSVRYEEKR [BRR2] | 3.41 ± 0.2 | 3.38 ± 0.14 | 3.12 ± 0.22 | –
DGFNKTFHDELNLKFKE [YML103C/NUP188] | 2.41 ± 0.066 | 2.38 ± 0.072 | 2.69 ± 0.087 | 2.65 ± 0.054
GKGDNDNGLGPLKYAPH [SWI3] | 2.69 ± 0.058 | 3.39 ± 0.12 | 2.85 ± 0.085 | 2.7 ± 0.052
KFHKREVVEAVTVVDTP [RPL3] | 1.44 ± 0.075 | 1.55 ± 0.066 | 1.63 ± 0.18 | 1.45 ± 0.069
DLPISSTDNEAITISNS [SMC1] | 2.8 ± 0.079 | 2.89 ± 0.093 | 2.7 ± 0.054 | 2.91 ± 0.059
ESSFIEIDDTEAEVTAE [BRR2] | 3.01 ± 0.068 | 3.1 ± 0.088 | 2.98 ± 0.11 | 3.06 ± 0.052
NKLGALKTNFETEWNLQ [RPB11] | 2.68 ± 0.064 | 2.9 ± 0.077 | 3.22 ± 0.12 | 2.95 ± 0.091
VDQNPLTMHKIIQLILW [SRB8] | 1.47 ± 0.085 | 1.6 ± 0.086 | 1.23 ± 0.17 | 1.36 ± 0.081
EAKERYTDRDQDEVNKG [NNF1] | 3.26 ± 0.15 | 3.28 ± 0.13 | 3.3 ± 0.22 | 3.74 ± 0.11
QFTLYDRELNEVINQME [SMC3] | 3.01 ± 0.095 | 3.09 ± 0.091 | 2.94 ± 0.13 | 3.08 ± 0.046
FGRKKRKGGPATAEKLP [RPT2] | 3.56 ± 0.089 | 3.28 ± 0.12 | 3.24 ± 0.075 | 3.34 ± 0.11
WQELARSTDEFNGAQLK [RPT5] | 2.52 ± 0.16 | 2.73 ± 0.2 | 2.65 ± 0.24 | 2.29 ± 0.17
QFTSSLFKALKVILNER [RGR1] | 2.03 ± 0.11 | 2.4 ± 0.069 | 1.83 ± 0.1 | 2.42 ± 0.077
TTESSDLKEGLQDLSRY [GRR1] | 3.24 ± 0.12 | 3.33 ± 0.11 | 3.33 ± 0.052 | 3.55 ± 0.045
FPTDLEIFQLFTNPSVD [SWI1] | 2.59 ± 0.069 | 2.88 ± 0.078 | 2.67 ± 0.07 | 2.35 ± 0.056
GGGWDNVDQTKTQCPNY [RPC11] | 3.47 ± 0.13 | 3.25 ± 0.17 | 3.07 ± 0.078 | 3.22 ± 0.09
AVTEATSTNGDSENNEE [RGR1] | 3.13 ± 0.14 | 3.3 ± 0.076 | 3.36 ± 0.068 | 3.08 ± 0.073
SNNQVIKMQRQFSQLND [MED6] | 3.01 ± 0.073 | 3.04 ± 0.059 | 3.03 ± 0.064 | 3.18 ± 0.06

Sequence | protein stability index (doa10∆) | protein stability index (pdr5∆) | protein stability index (san1∆) | protein stability index (ubr1∆)
PKFGVEGLIRLDNLTED [DIS3] | 2.97 ± 0.074 | 2.86 ± 0.068 | 3.08 ± 0.043 | 3.07 ± 0.038
HVLNKVTLASILTTAVG [RPN1] | 1.72 ± 0.14 | 1.41 ± 0.079 | 1.46 ± 0.21 | 1.31 ± 0.19
KVPDISSDGQLKKFRES [BRR2] | 3.36 ± 0.13 | 3.49 ± 0.14 | 3.39 ± 0.07 | 3.54 ± 0.065
CTQMTDEGLLNMVSLRG [GRR1] | 2.78 ± 0.1 | 2.66 ± 0.083 | 2.22 ± 0.088 | 2.02 ± 0.054
GYTQHGGLRPFGVSFIY [PRE9] | 2.67 ± 0.22 | 2.03 ± 0.098 | 1.84 ± 0.1 | 1.65 ± 0.064
HYLVLLVAKFLYPIFLL [YJR042W/NUP85] | 1.4 ± 0.035 | 1.22 ± 0.032 | 1.11 ± 0.071 | 1.13 ± 0.026
ADGQTLFAGYTDNVIRV [ASC1] | 1.85 ± 0.055 | 2.16 ± 0.052 | 2.22 ± 0.063 | 2.35 ± 0.057
KSAYANTEKDYKMVQEQ [SMC2] | 2.95 ± 0.053 | 3.02 ± 0.066 | 3.19 ± 0.04 | 3.21 ± 0.049
AAKLRTLDYAERHGYIR [RPL2A] | 3.38 ± 0.11 | 3.27 ± 0.14 | 2.9 ± 0.16 | 3.37 ± 0.13
YGNDEEVLFYEDNYNPK [RPN4] | 3.11 ± 0.094 | 3.2 ± 0.12 | 3.12 ± 0.097 | 2.96 ± 0.074
LLRIQMLLCVSYFLQER [PCI8] | 1.29 ± 0.046 | 1.45 ± 0.044 | 1.35 ± 0.074 | 1.22 ± 0.052
SMERKVQGAAPWDTSLE [MCD1] | 3.5 ± 0.11 | 3.1 ± 0.089 | 3.25 ± 0.087 | 3.44 ± 0.16
LTQGINGKEVPLAKIYL [MED1] | 2.52 ± 0.26 | 2.95 ± 0.17 | 2.32 ± 0.2 | 2.21 ± 0.23
VRHGRAGATTSRFIPLK [RPS15] | 2.62 ± 0.076 | 2.56 ± 0.062 | 2.89 ± 0.042 | 3.06 ± 0.064
GAHGYSGFYTFSLLDHH [PRE1] | 2.94 ± 0.19 | 2.44 ± 0.16 | 2.92 ± 0.098 | 2.76 ± 0.12
IVDKYIGESARIIREMF [RPT4] | 2.5 ± 0.14 | 2.6 ± 0.088 | 2.48 ± 0.11 | 2.44 ± 0.079
TIGPYRARKDRMRVSVL [SSN3] | 3.19 ± 0.15 | 2.99 ± 0.085 | 3.07 ± 0.083 | 3.12 ± 0.052
EKKNDENSTSNSKPEKS [YLR335W/NUP2] | 3.24 ± 0.086 | 3.21 ± 0.1 | 3.28 ± 0.054 | 3.3 ± 0.056
ILQILDQDELVQPPLDK [SWP82] | 2.58 ± 0.068 | 2.68 ± 0.11 | 2.62 ± 0.074 | 2.48 ± 0.11
HNGWVTSLATSAGQPNL [ASC1] | 2.32 ± 0.044 | 2.04 ± 0.049 | 2.09 ± 0.08 | 2.12 ± 0.052
AKKTIQNPLNKSQNTAL [SIR4] | 3.02 ± 0.058 | 3.1 ± 0.054 | 2.99 ± 0.042 | 3.08 ± 0.045
TLAYDRGHRIRREFKQY [PRP8] | 2.82 ± 0.08 | 2.63 ± 0.058 | 2.35 ± 0.098 | 2.3 ± 0.052
EITVVKPDSDIVALSSE [PRE6] | 3.1 ± 0.058 | 3.23 ± 0.051 | 3.24 ± 0.04 | 3.3 ± 0.049
STQPSFAWSKPSTGSNL [YGR119C/NUP57] | 2.98 ± 0.054 | 3.04 ± 0.055 | 3.01 ± 0.048 | 2.98 ± 0.038
VNCLELLINTNFNKFFK [PCI8] | 1.77 ± 0.045 | 1.88 ± 0.048 | 1.96 ± 0.065 | 1.99 ± 0.064
GAGSAFGFSSSGTAATG [YOR098C/NUP1] | 3.47 ± 0.2 | 3.41 ± 0.15 | 3.41 ± 0.17 | 3.57 ± 0.14
RNAQAQREAAAEYAQLL [RPS6A] | 2.88 ± 0.23 | 3.31 ± 0.2 | 2.85 ± 0.15 | 3.2 ± 0.12
